Like-named read-outs stand apart in the source and are kept apart here.
T1: FcγRIIa (CD32) (Sino Biological, cat #10374-H08H) (UniProt P12318 34-218)
T1 sequence (looked up): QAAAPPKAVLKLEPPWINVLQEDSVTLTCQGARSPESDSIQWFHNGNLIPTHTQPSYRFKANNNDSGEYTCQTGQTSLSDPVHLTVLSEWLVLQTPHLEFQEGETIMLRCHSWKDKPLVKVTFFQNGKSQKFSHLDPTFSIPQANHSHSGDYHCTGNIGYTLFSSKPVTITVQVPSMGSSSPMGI

B1: Anti-CDH3 Ab L234A, L235A, L328C (antibody, human IgG1, kappa, L234A L235A)
heavy: QVQLQQSGPGLVKPSQTLSLTCAISGDSVSSQSAAWNWIRQSPSRGLEWLGRIYYRSKWYNDYALSVKSRITINPDTSKNQFSLQLNSVTPEDTAVYYCARGEGYGREGFAIWGQGTLVTVSSASTKGPSVFPLAPSSKSTSGGTAALGCLVKDYFPEPVTVSWNSGALTSGVHTFPAVLQSSGLYSLSSVVTVPSSSLGTQTYICNVNHKPSNTKVDKRVEPKSCDKTHTCPPCPAPEAAGGPSVFLFPPKPKDTLMISRTPEVTCVVVDVSHEDPEVKFNWYVDGVEVHNAKTKPREEQYNSTYRVVSVLTVLHQDWLNGKEYKCKVSNKACPAPIEKTISKAKGQPREPQVYTLPPSREEMTKNQVSLTCLVKGFYPSDIAVEWESNGQPENNYKTTPPVLDSDGSFFLYSKLTVDKSRWQQGNVFSCSVMHEALHNHYTQKSLSLSPGK
light: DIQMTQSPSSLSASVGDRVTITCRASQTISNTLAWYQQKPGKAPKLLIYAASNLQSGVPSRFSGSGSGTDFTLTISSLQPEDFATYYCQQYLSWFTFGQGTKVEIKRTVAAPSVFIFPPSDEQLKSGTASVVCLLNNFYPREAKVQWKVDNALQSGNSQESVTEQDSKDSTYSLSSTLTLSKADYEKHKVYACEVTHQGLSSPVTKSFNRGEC
notes: Fc variant; wild-type light chain; also called Anti-CDH3 Mab triple mutant; triple mutation L234A, L235A, and L328C
B2: Anti-EGFR Ab No. 1 L234A, L235A, L328C (antibody, human IgG1, kappa, L234A L235A)
heavy: QVQLQESGPGLVKPSETLSLTCTVSGGSVSSGDYYWTWIRQSPGKGLEWIGHIYYSGNTNYNPSLKSRLTISIDTSKTQFSLKLSSVTAADTAIYYCVRDRVTGAFDIWGQGTMVTVSSASTKGPSVFPLAPSSKSTSGGTAALGCLVKDYFPEPVTVSWNSGALTSGVHTFPAVLQSSGLYSLSSVVTVPSSSLGTQTYICNVNHKPSNTKVDKKVEPKSCDKTHTCPPCPAPEAAGGPSVFLFPPKPKDTLMISRTPEVTCVVVDVSHEDPEVKFNWYVDGVEVHNAKTKPREEQYNSTYRVVSVLTVLHQDWLNGKEYKCKVSNKACPAPIEKTISKAKGQPREPQVYTLPPSREEMTKNQVSLTCLVKGFYPSDIAVEWESNGQPENNYKTTPPVLDSDGSFFLYSKLTVDKSRWQQGNVFSCSVMHEALHNHYTQKSLSLSPGK
light: not shown
notes: Fc variant; wild-type light chain; also called Anti-EGFR Mab No. 1 triple mutant; triple mutation L234A, L235A, and L328C

Assays:
[1] = biological target: T2, recombinant human soluble ECD of hCD16a/FCGRIIIA (human, UniProt P08637 17-208); assay: ELISA: plate coated with recombinant human CD16a/FCGRIIIA ECD, antibody titrated 0.005-80 ug/ml, HRP goat anti-human Fc, OD650
T2 construct: extracellular domain; also called FcγRIIIa

[2] = biological target: T3, recombinant human soluble ECD of CD64/FCGRIA (human, UniProt P12314 16-292); assay: ELISA: plate coated with recombinant human CD64/FCGRIA ECD, antibody titrated, HRP goat anti-human Fc, OD650
T3 construct: extracellular domain; also called FcγRI
Method: (§1) FcγRI binding was evaluated using an enzyme linked immunoassay (ELISA). Briefly, 96-well ELISA plates were coated with recombinant human soluble ECD of CD64/FCGRIA (Sino Biological, Inc. Beijing, China) in 1×PBS (pH7.4) coating buffer. Subsequently the plates were washed and blocked with ELISA blocking buffer. […] After washing to remove unbound antibodies, the bound antibodies were detected with horseradish peroxidase (HRP) conjugated goat anti-human Fc-specific polyclonal antibody (Jackson ImmunoResearch, West Grove, Pa.). After washing to remove the unbound detection antibody, a slow kinetic substrate solution of tetramethylbenzidine (TMB) was added to the wells where color develops in proportion to the amount of testing samples. The optical density (OD) of the color was measured at 650 nm and was used for determination of the amount of testing samples bound to FcγRI. Detectable binding of antibodies over the range of test concentrations was analyzed using the one-site binding, nonlinear regression analysis with GraphPad Prism.

[3] = biological target: T4, recombinant human CDH3 full-length (human, UniProt P22223 25-829, limits assumed); assay: ELISA: plate coated with recombinant human full-length CDH3, antibody titrated 0.0003-20 nM, HRP goat anti-human Fc, OD650
T4 construct: plate-coated recombinant protein, not on cells
Method: Target antigen binding was evaluated using an enzyme linked immunoassay (ELISA). Briefly, 96-well ELISA plates were coated with 0.05-0.075 ug of recombinant human soluble extracellular domain (ECD) of Her2/ErbB2 or EGFR or Trop2 (Sino Biologicals, Inc, Beijing, China) or 0.075 ug of recombinant human CDH3 full-length (Abnova, Taiwan). Subsequently, the plates were washed and blocked with ELISA blocking buffer. […] After washing to remove unbound detection antibody, a slow kinetic substrate solution of tetramethylbenzidine (TMB) was added to the wells where color develops in proportion to the amount of testing samples. The optical density (OD) of the color was measured at 650 nm and was used for determination of the amount of testing samples bound to the target antigen. Detectable binding of antibodies over the range of test concentrations was analyzed using the one-site binding, nonlinear regression analysis with GraphPad Prism.

[4] = biological target: T5, human C1q (sigma Cat #C1740) (human, UniProt P02745 23-245; P02746 28-253; P02747 29-245); assay: ELISA: plate coated with antibody at 1 ug/ml, human C1q titrated 0.625-40 ug/ml, rabbit anti-human C1q then HRP goat anti-rabbit, OD650
Method: (§2) Subsequently the plates were washed and blocked with ELISA blocking buffer (PBS containing 1% BSA). […] A slow kinetic substrate solution of tetramethylbenzidine (TMB) was added and the optical density (OD) of the color was measured at 650 nm. The data representing detectable binding of antibodies over the range of test concentrations was analyzed by one-site binding nonlinear regression analysis using GraphPad Prism software.

[5] = biological target: T6, recombinant human FcRn (Sino Biological) (human, UniProt P55899 24-297; P61769 21-119); assay: ELISA at pH 6.0: plate coated with recombinant human FcRn, antibody titrated, HRP goat anti-human Fc, OD650
Method: (§3) FcRn binding was evaluated using an enzyme linked immunoassay (ELISA). Briefly, 96-well ELISA plates were coated with of recombinant human FcRn (Sino Biological, Inc, Beijing, China) in 1×PBS (pH 6.0) coating buffer. Subsequently, the plates were washed and blocked with ELISA blocking buffer. […] After washing to remove unbound antibodies, the bound antibodies were detected with horseradish peroxidase (HRP) conjugated goat anti-human Fc-specific polyclonal antibody (Jackson ImmunoResearch, West Grove, Pa.). After washing to remove unbound detection antibody, a slow kinetic substrate solution of tetramethylbenzidine (TMB) was added to the wells where color develops in proportion to the amount of testing samples. The optical density (OD) of the color was measured at 650 nm and was used for determination of the amount of testing samples bound to FcRn. Detectable binding of antibodies over the range of test concentrations was analyzed using the one-site binding, nonlinear regression analysis with GraphPad Prism.

[6] = biological target: T1, FcγRIIa (CD32) (Sino Biological, cat …); assay: Sandwich ELISA: anti-His capture of His-tagged FcγRIIA mixed with titrated antibody, HRP goat anti-human IgG Fc, OD650
Method: Binding of antibodies to the low affinity FcγRIIA receptor was determined by a modified sandwich format ELISA. […] Wells were then blocked with PBS containing BSA. […] After washing with PBS, a 1:3,000 dilution of horseradish peroxidase (HRP)-labeled goat anti-hIgG Fc, JacksonImmunoResearch) in PBS-T plus 1% BSA was added to detect His-tag captured FcγRIIA and Mab complexes. The results were visualized by the addition of tetramethylbenzidine (TMB) and the optical density (OD) measured at 650 nm. Data representing detectable binding of antibodies to FcγRIIA and captured by anti-his tag Abs over the range of Fc variant test concentrations was analyzed by one-site binding nonlinear regression analysis using GraphPad Prism software.

[7] = biological target: T6, recombinant human FcRn (Sino Biological); assay: ELISA at pH 6.0: plate coated with recombinant human FcRn, antibody titrated, HRP goat anti-human Fc, OD650; remark: listed apart in the source
Method: as §3

[8] = biological target: T3, recombinant human soluble ECD of …; assay: ELISA: plate coated with recombinant human CD64/FCGRIA ECD, antibody titrated, HRP goat anti-human Fc, OD650; remark: listed apart in the source
Method: as §1

[9] = biological target: T5, human C1q (sigma Cat #C1740); assay: ELISA: plate coated with antibody at 1 ug/ml, human C1q titrated 0.625-40 ug/ml, rabbit anti-human C1q then HRP goat anti-rabbit, OD650; remark: listed apart in the source
Method: as §2

[10] = biological target: T2, recombinant human soluble ECD of …; assay: ELISA: plate coated with recombinant human CD16a/FCGRIIIA ECD, antibody titrated 0.005-80 ug/ml, HRP goat anti-human Fc, OD650; remark: listed apart in the source
Method: FcγRIIIa binding was evaluated using an enzyme linked immunoassay (ELISA). Briefly, 96-well ELISA plates were coated with of recombinant human soluble ECD of hCD16a/[sequence] (Sino Biological, Inc, Beijing, China) in 1×PBS (pH7.4) coating buffer. Subsequently the plates were washed and blocked with ELISA blocking buffer. […] After washing to remove unbound antibodies, the bound antibodies were detected with horseradish peroxidase (HRP) conjugated goat anti-human Fc-specific polyclonal antibody (Jackson ImmunoResearch, West Grove, Pa.). After washing to remove unbound detection antibody, a slow kinetic substrate solution of tetramethylbenzidine (TMB) was added to the wells where color develops in proportion to the amount of testing samples. The optical density (OD) of the color was measured at 650 nm and was used for determination of the amount of testing samples bound to FcγRIIa. Detectable binding of antibodies over the range of test concentrations was analyzed using the one-site binding, nonlinear regression analysis with GraphPad Prism.

T5 sequence (P02745 23-245 limits assumed, chain 1 of 3): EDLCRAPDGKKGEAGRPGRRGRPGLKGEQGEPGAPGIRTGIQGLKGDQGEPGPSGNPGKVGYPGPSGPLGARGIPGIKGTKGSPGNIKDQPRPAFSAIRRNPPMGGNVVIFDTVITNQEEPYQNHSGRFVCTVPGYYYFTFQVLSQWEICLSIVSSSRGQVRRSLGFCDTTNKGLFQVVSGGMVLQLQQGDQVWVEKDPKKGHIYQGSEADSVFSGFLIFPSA
T5 sequence (P02746 28-253 limits assumed, chain 2 of 3): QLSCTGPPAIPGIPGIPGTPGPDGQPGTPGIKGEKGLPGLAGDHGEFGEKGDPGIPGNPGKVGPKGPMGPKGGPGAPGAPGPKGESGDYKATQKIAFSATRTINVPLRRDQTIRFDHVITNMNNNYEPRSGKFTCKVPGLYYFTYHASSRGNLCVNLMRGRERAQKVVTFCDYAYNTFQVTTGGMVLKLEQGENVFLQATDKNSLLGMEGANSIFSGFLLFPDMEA
T5 sequence (P02747 29-245 limits assumed, chain 3 of 3): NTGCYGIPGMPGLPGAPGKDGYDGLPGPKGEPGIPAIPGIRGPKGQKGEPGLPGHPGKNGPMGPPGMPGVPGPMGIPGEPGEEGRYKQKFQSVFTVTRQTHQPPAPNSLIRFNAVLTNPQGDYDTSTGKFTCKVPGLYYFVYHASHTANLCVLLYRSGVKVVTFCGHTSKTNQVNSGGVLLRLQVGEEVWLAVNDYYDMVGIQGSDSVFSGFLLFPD
T2 sequence (P08637 17-208): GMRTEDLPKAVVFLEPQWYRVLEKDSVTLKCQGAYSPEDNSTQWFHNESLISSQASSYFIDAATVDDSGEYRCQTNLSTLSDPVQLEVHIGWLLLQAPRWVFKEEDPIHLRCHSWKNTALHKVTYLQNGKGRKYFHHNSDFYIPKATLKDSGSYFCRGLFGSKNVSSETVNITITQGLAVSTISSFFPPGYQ
T3 sequence (P12314 16-292): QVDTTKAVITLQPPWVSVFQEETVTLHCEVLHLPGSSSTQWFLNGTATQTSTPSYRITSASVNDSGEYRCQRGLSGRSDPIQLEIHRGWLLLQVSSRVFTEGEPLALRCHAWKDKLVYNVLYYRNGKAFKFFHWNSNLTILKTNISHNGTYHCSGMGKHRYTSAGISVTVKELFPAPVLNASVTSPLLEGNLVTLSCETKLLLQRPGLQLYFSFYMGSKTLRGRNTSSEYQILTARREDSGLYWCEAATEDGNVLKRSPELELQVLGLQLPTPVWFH

Row | binding result [1] | binding result [2] | EC50 (read off the curve) [3] [nM] | binding result [4] | binding result [5] | binding result [6] | binding result [7] | binding result [8] | binding result [9] | binding result [10] | Binder
1 | no binding (tested: 80 ug/ml) | binds | ~0.04 | binds | binds | binds |  |  |  |  | B1
2 |  |  |  |  |  |  | binds | no binding (tested: 30 ug/ml) | binds | no binding (tested: 80 ug/ml) | B2
